Source: patent US20210079423

Tests used:
[1] = tested on: PR406: SP(HSA)-PTEN-L-cathepsin B-HSA-6xHis (secreted form)
[2] = tested on: PR405: SP(HSA)-PTEN-L-MMP2/9-HSA-6xHis (secreted form)
[3] = tested on: PR407: SP(HSA)-PTEN-L-cathepsin B*-HSA-6xHis (secreted form)
[4] = tested on: PR402: SP(HSA)-PTEN-L-HSA-6xHis (secreted, mature form)
[5] = tested on: PR408: SP(HSA)-PTEN-L-cathepsinB**-HSA-6xHis (secreted form)

Sequence of recombinant active MMP2 protease (Enzo cat. #BML-SE237-0010) (chain, as listed by the source): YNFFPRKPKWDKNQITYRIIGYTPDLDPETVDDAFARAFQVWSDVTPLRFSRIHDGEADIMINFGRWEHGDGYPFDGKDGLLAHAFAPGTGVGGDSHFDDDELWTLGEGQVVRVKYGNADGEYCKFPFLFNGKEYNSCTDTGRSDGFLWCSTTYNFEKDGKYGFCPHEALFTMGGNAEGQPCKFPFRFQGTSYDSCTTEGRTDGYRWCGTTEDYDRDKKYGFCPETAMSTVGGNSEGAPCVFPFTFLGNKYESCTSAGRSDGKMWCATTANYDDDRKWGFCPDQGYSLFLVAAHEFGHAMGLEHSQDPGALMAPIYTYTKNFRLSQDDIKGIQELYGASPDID

Substance | in vitro cleavage of the fusion [1] | in vitro cleavage of the fusion [2] | pH dependence of in vitro cleavage (pH 5.0 against pH 7.0 buffer) [3] | in vitro cleavage of the fusion (F-1 anti-PTEN western blot of digests at t=0, 4 h, 21 h) [4] | pH dependence of in vitro cleavage (pH 5.0 against pH 7.0 buffer) [5] | in vitro cleavage of the fusion, release of a PTEN-L-like fragment (~70 KDa) [2] | in vitro cleavage of the fusion [3] | in vitro cleavage of the fusion [5]
active CATSB (Cathepsin B; BioVision #7580-5) | though it did not cleave PR406 (SEQ ID NO:130; cDNA SEQ ID NO:158) | PR405 (SEQ ID NO:129; cDNA SEQ ID NO:157) was not cleaved by CATSB | CATSB only cleaves PR407 and PR408 at a low pH (FIG. 15) | PR402 was not appreciably cleaved by either recombinant MMP2 or CATSB | CATSB only cleaves PR407 and PR408 at a low pH (FIG. 15) |  |  | 
recombinant active MMP2 protease (Enzo cat. #BML-SE237-0010) | MMP2 did however cleave its consensus site (SEQ ID NO:165) on PR405 only |  |  | PR402 was not appreciably cleaved by either recombinant MMP2 or CATSB |  | MMP2 did however cleave its consensus site (SEQ ID NO:165) on PR405 only; this cleavage released a PTEN-L-like fragment (~70 KDa) | MMP2 did however cleave its consensus site (SEQ ID NO:165) on PR405 only | MMP2 did however cleave its consensus site (SEQ ID NO:165) on PR405 only
